{"source": "patent US10472652B2", "about": "“Chemical engineering processes and apparatus for the synthesis of compounds” (TEEWINOT T[…], priority 2013, dated 2019)"}
{"target": "T1, THCA synthase (Cannabis sativa, UniProt Q8GTB6)", "T1 construct": "His-tag (C); made in house; host or cells: Pichia pastoris (PichiaPink, pPink-HC vector), secreted into the medium; cell-free T3 supernatant used", "T1 sequence (Q8GTB6 29-545)": "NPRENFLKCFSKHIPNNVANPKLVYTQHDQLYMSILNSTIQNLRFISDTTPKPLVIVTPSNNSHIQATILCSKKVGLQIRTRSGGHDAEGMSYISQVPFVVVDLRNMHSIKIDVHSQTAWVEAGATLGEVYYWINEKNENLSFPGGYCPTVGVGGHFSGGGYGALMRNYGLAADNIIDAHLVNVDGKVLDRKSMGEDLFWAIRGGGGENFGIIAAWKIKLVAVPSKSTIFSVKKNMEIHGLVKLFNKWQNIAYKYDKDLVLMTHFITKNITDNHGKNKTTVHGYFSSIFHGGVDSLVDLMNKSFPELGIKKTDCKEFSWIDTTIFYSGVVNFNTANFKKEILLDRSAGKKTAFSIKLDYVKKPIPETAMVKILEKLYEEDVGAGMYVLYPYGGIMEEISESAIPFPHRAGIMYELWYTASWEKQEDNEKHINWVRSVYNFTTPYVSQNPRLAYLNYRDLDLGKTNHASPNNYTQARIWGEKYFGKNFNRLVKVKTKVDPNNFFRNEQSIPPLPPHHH", "assay": "catalytic activity of THCA synthase from independent colonies of transformed pPink yeast cells (conversion of CBGA to THCA)", "type": "biochemical", "settings": "25 μl cell free supernatant of T3 sample, 100 mM citrate buffer, 10% DMSO, final pH 5.0, 2 hours at 30° C.", "experimental": "After 24 hours a 100 μL of the cell sample was removed to which was added 100 μL of 40% methanol to induce enzyme production. This methanolic sample was then centrifuged at 12,000 rpm for 5 minutes and the supernatant and pellet were saved as the T1 sample. A second culture sample was obtained after a 48 hour incubation period and treated with methanol as described above. After centrifugation, the supernatant and pellet are saved as the T2 sample. At 72 hours the entire incubation mixture is treated with an appropriate volume of 40% methanol. The supernatant and pellet obtained from methanolic treatment of the culture after a 72 hour incubation period is labeled as T3. The T3 supernatant was spun through an Amicon 30 kD protein filter and analyzed for protein using an SDS-PAGE gel.\nThe catalytic activity of THCA synthase was measured by incubating 25 μl of the cell free supernatant from a T3 sample with 25 μl of a 1 mg/ml CBGA stock in 200 μl of a 100 mM citrate buffer at pH 4.8 having 10% DMSO for 2 hours at 30° C. The final concentration of CBGA in the reaction mixture was 0.1 mg/ml and the final pH is 5.0. Table 4 illustrates the data related to the catalytic activity of THCA synthase obtained from independent colonies of transformed pPink yeast cells, namely. pPink yeast cells that were transformed using linearized THCA synthase plasmids. Culture samples that converted greater than 20% of the substrate CBGA to product THCA were selected for scale up.", "units": {"% Conversion of CBGA to THCA in reaction containing 0.1 mg/ml CBGA.": "%"}}
{"molecule": "Pme THC #5: cell free supernatant with THCA synthase from a pPink yeast colony transformed with Pme I linearized THCA synthase plasmid (protein, UniProt Q8GTB6 29-545, looked up, yeast culture supernatant, cell free supernatant with THCA synthase from a pPink yeast colony transformed with Pme I linearized THCA synthase plasmid) Tetrahydrocannabinolic acid …: NPRENFLKCFSKHIPNNVANPKLVYTQHDQLYMSILNSTIQNLRFISDTTPKPLVIVTPSNNSHIQATILCSKKVGLQIRTRSGGHDAEGMSYISQVPFVVVDLRNMHSIKIDVHSQTAWVEAGATLGEVYYWINEKNENLSFPGGYCPTVGVGGHFSGGGYGALMRNYGLAADNIIDAHLVNVDGKVLDRKSMGEDLFWAIRGGGGENFGIIAAWKIKLVAVPSKSTIFSVKKNMEIHGLVKLFNKWQNIAYKYDKDLVLMTHFITKNITDNHGKNKTTVHGYFSSIFHGGVDSLVDLMNKSFPELGIKKTDCKEFSWIDTTIFYSGVVNFNTANFKKEILLDRSAGKKTAFSIKLDYVKKPIPETAMVKILEKLYEEDVGAGMYVLYPYGGIMEEISESAIPFPHRAGIMYELWYTASWEKQEDNEKHINWVRSVYNFTTPYVSQNPRLAYLNYRDLDLGKTNHASPNNYTQARIWGEKYFGKNFNRLVKVKTKVDPNNFFRNEQSIPPLPPHHH", "% Conversion of CBGA to THCA in reaction containing 0.1 mg/ml CBGA.": 32.5}
{"molecule": "Pme THC(2) #1: cell free supernatant with THCA synthase from a pPink yeast colony transformed with Pme I linearized THCA synthase plasmid (protein, UniProt Q8GTB6 29-545, looked up, yeast culture supernatant, cell free supernatant with THCA synthase from a pPink yeast colony transformed with Pme I linearized THCA synthase plasmid) Tetrahydrocannabinolic acid …: NPRENFLKCFSKHIPNNVANPKLVYTQHDQLYMSILNSTIQNLRFISDTTPKPLVIVTPSNNSHIQATILCSKKVGLQIRTRSGGHDAEGMSYISQVPFVVVDLRNMHSIKIDVHSQTAWVEAGATLGEVYYWINEKNENLSFPGGYCPTVGVGGHFSGGGYGALMRNYGLAADNIIDAHLVNVDGKVLDRKSMGEDLFWAIRGGGGENFGIIAAWKIKLVAVPSKSTIFSVKKNMEIHGLVKLFNKWQNIAYKYDKDLVLMTHFITKNITDNHGKNKTTVHGYFSSIFHGGVDSLVDLMNKSFPELGIKKTDCKEFSWIDTTIFYSGVVNFNTANFKKEILLDRSAGKKTAFSIKLDYVKKPIPETAMVKILEKLYEEDVGAGMYVLYPYGGIMEEISESAIPFPHRAGIMYELWYTASWEKQEDNEKHINWVRSVYNFTTPYVSQNPRLAYLNYRDLDLGKTNHASPNNYTQARIWGEKYFGKNFNRLVKVKTKVDPNNFFRNEQSIPPLPPHHH", "% Conversion of CBGA to THCA in reaction containing 0.1 mg/ml CBGA.": 29.1}
{"molecule": "Pme THC(2) #2A: cell free supernatant with THCA synthase from a pPink yeast colony transformed with Pme I linearized THCA synthase plasmid (protein, UniProt Q8GTB6 29-545, looked up, yeast culture supernatant, cell free supernatant with THCA synthase from a pPink yeast colony transformed with Pme I linearized THCA synthase plasmid) Tetrahydrocannabinolic acid …: NPRENFLKCFSKHIPNNVANPKLVYTQHDQLYMSILNSTIQNLRFISDTTPKPLVIVTPSNNSHIQATILCSKKVGLQIRTRSGGHDAEGMSYISQVPFVVVDLRNMHSIKIDVHSQTAWVEAGATLGEVYYWINEKNENLSFPGGYCPTVGVGGHFSGGGYGALMRNYGLAADNIIDAHLVNVDGKVLDRKSMGEDLFWAIRGGGGENFGIIAAWKIKLVAVPSKSTIFSVKKNMEIHGLVKLFNKWQNIAYKYDKDLVLMTHFITKNITDNHGKNKTTVHGYFSSIFHGGVDSLVDLMNKSFPELGIKKTDCKEFSWIDTTIFYSGVVNFNTANFKKEILLDRSAGKKTAFSIKLDYVKKPIPETAMVKILEKLYEEDVGAGMYVLYPYGGIMEEISESAIPFPHRAGIMYELWYTASWEKQEDNEKHINWVRSVYNFTTPYVSQNPRLAYLNYRDLDLGKTNHASPNNYTQARIWGEKYFGKNFNRLVKVKTKVDPNNFFRNEQSIPPLPPHHH", "% Conversion of CBGA to THCA in reaction containing 0.1 mg/ml CBGA.": 27.2}
{"molecule": "Pme THC(2) #25: cell free supernatant with THCA synthase from a pPink yeast colony transformed with Pme I linearized THCA synthase plasmid (protein, UniProt Q8GTB6 29-545, looked up, yeast culture supernatant, cell free supernatant with THCA synthase from a pPink yeast colony transformed with Pme I linearized THCA synthase plasmid) Tetrahydrocannabinolic acid …: NPRENFLKCFSKHIPNNVANPKLVYTQHDQLYMSILNSTIQNLRFISDTTPKPLVIVTPSNNSHIQATILCSKKVGLQIRTRSGGHDAEGMSYISQVPFVVVDLRNMHSIKIDVHSQTAWVEAGATLGEVYYWINEKNENLSFPGGYCPTVGVGGHFSGGGYGALMRNYGLAADNIIDAHLVNVDGKVLDRKSMGEDLFWAIRGGGGENFGIIAAWKIKLVAVPSKSTIFSVKKNMEIHGLVKLFNKWQNIAYKYDKDLVLMTHFITKNITDNHGKNKTTVHGYFSSIFHGGVDSLVDLMNKSFPELGIKKTDCKEFSWIDTTIFYSGVVNFNTANFKKEILLDRSAGKKTAFSIKLDYVKKPIPETAMVKILEKLYEEDVGAGMYVLYPYGGIMEEISESAIPFPHRAGIMYELWYTASWEKQEDNEKHINWVRSVYNFTTPYVSQNPRLAYLNYRDLDLGKTNHASPNNYTQARIWGEKYFGKNFNRLVKVKTKVDPNNFFRNEQSIPPLPPHHH", "% Conversion of CBGA to THCA in reaction containing 0.1 mg/ml CBGA.": 31.6}
{"molecule": "Pme THC(2) #36: cell free supernatant with THCA synthase from a pPink yeast colony transformed with Pme I linearized THCA synthase plasmid (protein, UniProt Q8GTB6 29-545, looked up, yeast culture supernatant, cell free supernatant with THCA synthase from a pPink yeast colony transformed with Pme I linearized THCA synthase plasmid) Tetrahydrocannabinolic acid …: NPRENFLKCFSKHIPNNVANPKLVYTQHDQLYMSILNSTIQNLRFISDTTPKPLVIVTPSNNSHIQATILCSKKVGLQIRTRSGGHDAEGMSYISQVPFVVVDLRNMHSIKIDVHSQTAWVEAGATLGEVYYWINEKNENLSFPGGYCPTVGVGGHFSGGGYGALMRNYGLAADNIIDAHLVNVDGKVLDRKSMGEDLFWAIRGGGGENFGIIAAWKIKLVAVPSKSTIFSVKKNMEIHGLVKLFNKWQNIAYKYDKDLVLMTHFITKNITDNHGKNKTTVHGYFSSIFHGGVDSLVDLMNKSFPELGIKKTDCKEFSWIDTTIFYSGVVNFNTANFKKEILLDRSAGKKTAFSIKLDYVKKPIPETAMVKILEKLYEEDVGAGMYVLYPYGGIMEEISESAIPFPHRAGIMYELWYTASWEKQEDNEKHINWVRSVYNFTTPYVSQNPRLAYLNYRDLDLGKTNHASPNNYTQARIWGEKYFGKNFNRLVKVKTKVDPNNFFRNEQSIPPLPPHHH", "% Conversion of CBGA to THCA in reaction containing 0.1 mg/ml CBGA.": 27.7}
{"molecule": "Pme THC(2) #41: cell free supernatant with THCA synthase from a pPink yeast colony transformed with Pme I linearized THCA synthase plasmid (protein, UniProt Q8GTB6 29-545, looked up, yeast culture supernatant, cell free supernatant with THCA synthase from a pPink yeast colony transformed with Pme I linearized THCA synthase plasmid) Tetrahydrocannabinolic acid …: NPRENFLKCFSKHIPNNVANPKLVYTQHDQLYMSILNSTIQNLRFISDTTPKPLVIVTPSNNSHIQATILCSKKVGLQIRTRSGGHDAEGMSYISQVPFVVVDLRNMHSIKIDVHSQTAWVEAGATLGEVYYWINEKNENLSFPGGYCPTVGVGGHFSGGGYGALMRNYGLAADNIIDAHLVNVDGKVLDRKSMGEDLFWAIRGGGGENFGIIAAWKIKLVAVPSKSTIFSVKKNMEIHGLVKLFNKWQNIAYKYDKDLVLMTHFITKNITDNHGKNKTTVHGYFSSIFHGGVDSLVDLMNKSFPELGIKKTDCKEFSWIDTTIFYSGVVNFNTANFKKEILLDRSAGKKTAFSIKLDYVKKPIPETAMVKILEKLYEEDVGAGMYVLYPYGGIMEEISESAIPFPHRAGIMYELWYTASWEKQEDNEKHINWVRSVYNFTTPYVSQNPRLAYLNYRDLDLGKTNHASPNNYTQARIWGEKYFGKNFNRLVKVKTKVDPNNFFRNEQSIPPLPPHHH", "% Conversion of CBGA to THCA in reaction containing 0.1 mg/ml CBGA.": 32.5}
{"molecule": "Pme THC(2) #42: cell free supernatant with THCA synthase from a pPink yeast colony transformed with Pme I linearized THCA synthase plasmid (protein, UniProt Q8GTB6 29-545, looked up, yeast culture supernatant, cell free supernatant with THCA synthase from a pPink yeast colony transformed with Pme I linearized THCA synthase plasmid) Tetrahydrocannabinolic acid …: NPRENFLKCFSKHIPNNVANPKLVYTQHDQLYMSILNSTIQNLRFISDTTPKPLVIVTPSNNSHIQATILCSKKVGLQIRTRSGGHDAEGMSYISQVPFVVVDLRNMHSIKIDVHSQTAWVEAGATLGEVYYWINEKNENLSFPGGYCPTVGVGGHFSGGGYGALMRNYGLAADNIIDAHLVNVDGKVLDRKSMGEDLFWAIRGGGGENFGIIAAWKIKLVAVPSKSTIFSVKKNMEIHGLVKLFNKWQNIAYKYDKDLVLMTHFITKNITDNHGKNKTTVHGYFSSIFHGGVDSLVDLMNKSFPELGIKKTDCKEFSWIDTTIFYSGVVNFNTANFKKEILLDRSAGKKTAFSIKLDYVKKPIPETAMVKILEKLYEEDVGAGMYVLYPYGGIMEEISESAIPFPHRAGIMYELWYTASWEKQEDNEKHINWVRSVYNFTTPYVSQNPRLAYLNYRDLDLGKTNHASPNNYTQARIWGEKYFGKNFNRLVKVKTKVDPNNFFRNEQSIPPLPPHHH", "% Conversion of CBGA to THCA in reaction containing 0.1 mg/ml CBGA.": 27.6}
